From patent US20180185510A1, “ANTIBODY DRUG CONJUGATES OF KINESIN SPINDEL PROTEIN (KSP) INHIBITORS WITH ANTI-B7H3-ANTIBODIES” (BAYER PHARMA AKTIENGESELLSCHAFT, priority 2015, published 2018)
Where “and” joins values, the source holds several entries; their conditions need not be identical. Equal entries are not always repeated.

T1: B7H3 on B7H3-positive human tumour cells (A498, MCF-7, Caki-2, 786-0) (human, UniProt Q5ZPR3 29-534)
T1 sequence (looked up): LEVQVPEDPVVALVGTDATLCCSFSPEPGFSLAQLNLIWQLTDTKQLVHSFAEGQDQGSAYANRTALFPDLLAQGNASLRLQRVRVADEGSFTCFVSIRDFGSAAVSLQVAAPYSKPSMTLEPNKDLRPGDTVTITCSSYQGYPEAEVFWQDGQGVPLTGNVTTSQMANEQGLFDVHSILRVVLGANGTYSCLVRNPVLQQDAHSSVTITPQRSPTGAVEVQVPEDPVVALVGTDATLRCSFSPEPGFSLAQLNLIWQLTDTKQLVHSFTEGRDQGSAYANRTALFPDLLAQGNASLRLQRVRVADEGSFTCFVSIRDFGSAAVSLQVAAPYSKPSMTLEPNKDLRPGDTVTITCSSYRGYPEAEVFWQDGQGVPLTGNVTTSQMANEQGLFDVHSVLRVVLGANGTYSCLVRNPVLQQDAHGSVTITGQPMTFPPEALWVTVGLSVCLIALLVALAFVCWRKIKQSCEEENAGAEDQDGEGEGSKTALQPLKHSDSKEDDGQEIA

B1: Example 257L2: anti-B7H3 AK1B (TPP-5706) coupled with Intermediate F257 (antibody, human IgG1, kappa, V domains shown)
VH: QVQLQQPGAELVKPGASVKMSCKASGYTFTIYNVHWIKQTPGQGLEWMGTIFPGNGDTSYNQKFKDKATLTTDKSSKTAYMQLNSLTSEDSAVYYCARWDDGNVGFAHWGQGTLVTVSA
VL: DIQMTQSPASLSASVGETVTITCRASENINNYLTWFQQKQGKSPQLLVYHAKTLAEGVPSRFSGSGSGTQFSLKINSLQPEDFGSYYCQHHYGTPPTFGGGTKLEIKR
modifications: KSP inhibitor-linker (Intermediate F257) on cysteine residues of the partially reduced antibody, sites not given; drug/mAb ratio 4.5
B2: Example 296L2: anti-B7H3 AK1B (TPP-5706) coupled with Intermediate F296 (antibody, human IgG1, kappa, V domains shown)
VH: B1 VH
VL: B1 VL
modifications: KSP inhibitor-linker (Intermediate F296) on cysteine residues of the partially reduced antibody, sites not given; drug/mAb ratio 3.2
B3: Example 275L2: anti-B7H3 AK1B (TPP-5706) coupled with Intermediate F275 (antibody, human IgG1, kappa, V domains shown)
VH: B1 VH
VL: B1 VL
modifications: KSP inhibitor-linker (Intermediate F275) on cysteine residues of the partially reduced antibody, sites not given; drug/mAb ratio 3.8
B4: Example 208L2: anti-B7H3 AK1B (TPP-5706) coupled with Intermediate F104 (stirred at pH 8 overnight) (antibody, human IgG1, kappa, V domains shown)
VH: B1 VH
VL: B1 VL
modifications: KSP inhibitor-linker (Intermediate F104) on cysteine residues of the partially reduced antibody, sites not given; drug/mAb ratio 2.9
B5: Example 194L2: anti-B7H3 AK1B (TPP-5706) coupled with Intermediate F194 (antibody, human IgG1, kappa, V domains shown)
VH: B1 VH
VL: B1 VL
modifications: KSP inhibitor-linker (Intermediate F194) on lysine residues, sites not given; drug/mAb ratio 2.9
B6: Example 281L2: anti-B7H3 AK1B (TPP-5706) coupled with Intermediate F281 (antibody, human IgG1, kappa, V domains shown)
VH: B1 VH
VL: B1 VL
modifications: KSP inhibitor-linker (Intermediate F281) on cysteine residues of the partially reduced antibody, sites not given; drug/mAb ratio 2.4
B7: Example 284L2: anti-B7H3 AK1B (TPP-5706) coupled with Intermediate F284 (antibody, human IgG1, kappa, V domains shown)
VH: B1 VH
VL: B1 VL
modifications: KSP inhibitor-linker (Intermediate F284) on cysteine residues of the partially reduced antibody, sites not given; drug/mAb ratio 3.0
B8: Example 297L2 (Isomer 1): anti-B7H3 AK1B (TPP-5706) coupled with Intermediate F297 (antibody, human IgG1, kappa, V domains shown)
VH: B1 VH
VL: B1 VL
modifications: KSP inhibitor-linker (Intermediate F297) on cysteine residues of the partially reduced antibody, sites not given; drug/mAb ratio 3.1
B9: Example 240L2: anti-B7H3 AK1B (TPP-5706) coupled with Intermediate F240 (antibody, human IgG1, kappa, V domains shown)
VH: B1 VH
VL: B1 VL
modifications: KSP inhibitor-linker (Intermediate F240) on cysteine residues of the partially reduced antibody, sites not given; drug/mAb ratio 3.5
B10: Example 173L1: anti-B7H3 AK1A (TPP-3803) coupled with Intermediate F173 (antibody, human IgG1, kappa, V domains shown)
VH: QVKLQQSGAELVKPGASVKLSCKASGYTFTNYDINWVRQRPEQGLEWIGWIFPGDGSTQYNEKFKGKATLTTDTSSSTAYMQLSRLTSEDSAVYFCARQTTATWFAYWGQGTTVTVSS
VL: DIELTQSPTTLSVTPGDRVSLSCRASQSISDYLHWYQQKSHESPRLLIKYASQSISGIPSRFSGSGSGSDFTLSINSVEPEDVGVYYCQNGHSFPLTFGAGTKLELKR
modifications: KSP inhibitor-linker (Intermediate F173) on cysteine residues of the partially reduced antibody, sites not given; drug/mAb ratio 3.4
B11: Example 259L1: anti-B7H3 AK1A (TPP-3803) coupled with Intermediate F259 (antibody, human IgG1, kappa, V domains shown)
VH: B10 VH
VL: B10 VL
modifications: KSP inhibitor-linker (Intermediate F259) on cysteine residues of the partially reduced antibody, sites not given; drug/mAb ratio 3.0
B12: Example 257L1: anti-B7H3 AK1A (TPP-3803) coupled with Intermediate F257 (antibody, human IgG1, kappa, V domains shown)
VH: B10 VH
VL: B10 VL
modifications: KSP inhibitor-linker (Intermediate F257) on cysteine residues of the partially reduced antibody, sites not given; drug/mAb ratio 2.4
B13: Example 194: anti-B7H3 AK1A (TPP-3803) coupled with Intermediate F194 (antibody, human IgG1, kappa, V domains shown)
VH: B10 VH
VL: B10 VL
modifications: KSP inhibitor-linker (Intermediate F194) on lysine residues, sites not given; drug/mAb ratio 2.4
B14: Example 274L1: anti-B7H3 AK1A (TPP-3803) coupled with Intermediate F274 (antibody, human IgG1, kappa, V domains shown)
VH: B10 VH
VL: B10 VL
modifications: KSP inhibitor-linker (Intermediate F274) on cysteine residues of the partially reduced antibody, sites not given; drug/mAb ratio 2.9
B15: Example 297L1 (Isomer 1): anti-B7H3 AK1A (TPP-3803) coupled with Intermediate F297 (antibody, human IgG1, kappa, V domains shown)
VH: B10 VH
VL: B10 VL
modifications: KSP inhibitor-linker (Intermediate F297) on cysteine residues of the partially reduced antibody, sites not given; drug/mAb ratio 2.4
B16: Example 240L1: anti-B7H3 AK1A (TPP-3803) coupled with Intermediate F240 (antibody, human IgG1, kappa, V domains shown)
VH: B10 VH
VL: B10 VL
modifications: KSP inhibitor-linker (Intermediate F240) on cysteine residues of the partially reduced antibody, sites not given; drug/mAb ratio 2.7
B17: Example 270L1: anti-B7H3 AK1A (TPP-3803) coupled with Intermediate F270 (antibody, human IgG1, kappa, V domains shown)
VH: B10 VH
VL: B10 VL
modifications: KSP inhibitor-linker (Intermediate F270) on cysteine residues of the partially reduced antibody, sites not given; drug/mAb ratio 2.8

Test system: KPL4
Experiment: MTT assay, cytotoxicity of metabolites, KPL4
Assay type: cell-based
Details: KPL4, 96 h, 96 h incubation
Procedure: The cells were cultivated according to the standard method using the growth media listed under C-1. The test is carried out by detaching the cells with a solution of Accutase in PBS (Biochrom AG #L2143), pelleting, resuspending in culture medium, counting and sowing into a 96-well culture plate with white bottom (Costar #3610) (NCI H292: 2500 cells/well in a total volume of 100 μl). The cells were then incubated in an incubator at 37° C. and 5% carbon dioxide. After 48 h, the medium was replaced. The metabolites in 10 μl of culture medium in concentrations from 10^−5M to 10^−13M were then pipetted to the cells (in triplicate), and the assay was then incubated in an incubator at 37° C. and 5% carbon dioxide. […] To this end, the MTT reagent was incubated with the cells for 4 h, followed by lysis of the cells overnight by addition of the detergent. The dye formed was detected at 570 nm (Infinite M1000 pro, Tecan). The measured data were used to calculate the IC50 of the growth inhibition using the DRC (dose response curve). The proliferation of cells which were not treated with test substance but were otherwise identically treated was defined as the 100% figure.

Molecule	IC50
CC(C)(C)[C@H](c1cc(-c2cc(F)ccc2F)cn1Cc1ccccc1)N(CC[C@H](N)C(=O)NCCNC(=O)CNC(=O)CC(SC[C@H](N)C(=O)O)C(=O)O)C(=O)CO (single isomer, unassigned) [Example M14]	182 nM
CC(C)(C)[C@H](c1cc(-c2cc(F)ccc2F)cn1Cc1ccccc1)N(CC[C@H](N)C(=O)NCCOCCN1C(=O)CC(SC[C@H](N)C(=O)O)C1=O)C(=O)CO (stereo partly drawn) [Example M4, S-(1-{2-[2-({(2S)-2-Amino-4-[{(1R)-1-[1-benzyl-4-(2,5-difluorophenyl)-1H-pyrrol-2-yl]-2,2-dimethylpropyl}(glycoloyl)amino]butanoyl}amino)ethoxy]ethyl}-2,5-dioxopyrrolidin-3-yl)-L-cysteine/trifluoroacetic acid (1:1)]	176 nM
CC(C)(C)[C@H](c1cc(-c2cc(F)ccc2F)cn1Cc1ccccc1)N(CC[C@H](N)C(=O)NCCNC(=O)CSC[C@H](N)C(=O)O)C(=O)CO [Example M7, S-(2-{[2-({(2S)-2-Amino-4-[{(1R)-1-[1-benzyl-4-(2,5-difluorophenyl)-1H-pyrrol-2-yl]-2,2-dimethylpropyl}(glycoloyl)amino]butanoyl}amino)ethyl]amino}-2-oxoethyl)-L-cysteine/trifluoroacetic acid (1:1)]	92.5 nM
CC(C)(C)[C@H](c1cc(-c2cc(F)ccc2F)cn1Cc1ccccc1)N(CC[C@H](N)C(=O)NCCNC(=O)CNC(=O)CC(SC[C@H](N)C(=O)O)C(=O)O)C(=O)CO (stereo partly drawn) [Example M13, 4-[(2-{[2-({(2S)-2-Amino-4-[{(1R)-1-[1-benzyl-4-(2,5-difluorophenyl)-1H-pyrrol-2-yl]-2,2-dimethylpropyl}(glycoloyl)amino]butanoyl}amino)ethyl]amino}-2-oxoethyl)amino]-2-{[(2R)-2-amino-2-carboxyethyl]sulphanyl}-4-oxobutanoic acid/trifluoroacetic acid (1:1)]	169 nM

Target: T1, B7H3 on B7H3-positive human tumour …
Experiment: cell-based or functional assay
Details: not given

Molecule	IC50 [M] CTG, A498 cells (B7H3-positive)	IC50 [M] CTG, Caki-2 cells (B7H3-positive)	IC50 [M] CTG, MCF-7 cells (B7H3-positive)
B1	1.16e-10 M and 1.37e-10 M	1.5e-11 M and < 3e-11 M	7.37e-11 M and 8.63e-11 M
B2	6.22e-10 M	> 3e-07 M	1.63e-10 M
B3	> 3e-07 M	> 3e-07 M	9.15e-11 M
B4	–	5.99e-09 M	2.42e-10 M
B5	3.57e-10 M	2.75e-10 M	2.08e-10 M
B6	1.39e-08 M	5.26e-09 M	3.42e-08 M
B7	–	–	7.02e-10 M
B8	> 3e-07 M	> 3e-07 M	7.56e-10 M
B9	7.49e-10 M	> 3e-07 M	1.58e-10 M
B10	6e-07 M	–	4.98e-09 M
B11	–	–	4.57e-09 M
B12	–	–	4.49e-10 M
B13	–	–	6.43e-10 M
B14	–	–	1.86e-09 M
B15	–	–	8.93e-09 M
B16	2.35e-09 M	–	7.25e-10 M
B17	6e-07 M	–	7e-08 M
